Assay results from paper PMC7442819, “Taf14 recognizes a common motif in transcriptional machineries and facilitates their clustering by phase separation” (Nature Communications, 2020).

B1: Sth1^WT-TAP [Saccharomyces cerevisiae] / Taf14-HA [Saccharomyces cerevisiae] (parent complex)
chain 1: MLQEQSELMSTVMNNTPTTVAALAAVAAASETNGKLGSEEQPEITIPKPRSSAQLEQLLYRYRAIQNHPKENKLEIKAIEDTFRNISRDQDIYETKLDTLRKSIDKGFQYDEDLLNKHLVALQLLEKDTDVPDYFLDLPDTKNDNTTAIEVDYSEKKPIKISADFNAKAKSLGLESKFSNATKTALGDPDTEIRISARISNRINELERLPANLGTYSLDDCLEFITKDDLSSRMDTFKIKALVELKSLKLLTKQKSIRQKLINNVASQAHHNIPYLRDSPFTAAAQRSVQIRSKVIVPQTVRLAEELERQQLLEKRKKERNLHLQKINSIIDFIKERQSEQWSRQERCFQFGRLGASLHNQMEKDEQKRIERTAKQRLAALKSNDEEAYLKLLDQTKDTRITQLLRQTNSFLDSLSEAVRAQQNEAKILHGEEVQPITDEEREKTDYYEVAHRIKEKIDKQPSILVGGTLKEYQLRGLEWMVSLYNNHLNGILADEMGLGKTIQSISLITYLYEVKKDIGPFLVIVPLSTITNWTLEFEKWAPSLNTIIYKGTPNQRHSLQHQIRVGNFDVLLTTYEYIIKDKSLLSKHDWAHMIIDEGHRMKNAQSKLSFTISHYYRTRNRLILTGTPLQNNLPELWALLNFVLPKIFNSAKTFEDWFNTPFANTGTQEKLELTEEETLLIIRRLHKVLRPFLLRRLKKEVEKDLPDKVEKVIKCKLSGLQQQLYQQMLKHNALFVGAGTEGATKGGIKGLNNKIMQLRKICNHPFVFDEVEGVVNPSRGNSDLLFRVAGKFELLDRVLPKFKASGHRVLMFFQMTQVMDIMEDFLRMKDLKYMRLDGSTKTEERTEMLNAFNAPDSDYFCFLLSTRAGGLGLNLQTADTVIIFDTDWNPHQDLQAQDRAHRIGQKNEVRILRLITTDSVEEVILERAMQKLDIDGKVIQAGKFDNKSTAEEQEAFLRRLIESETNRDDDDKAELDDDELNDTLARSADEKILFDKIDKERMNQERADAKAQGLRVPPPRLIQLDELPKVFREDIEEHFKKEDSEPLGRIRQKKRVYYDDGLTEEQFLEAVEDDNMSLEDAIKKRREARERRRLRQNGTKENEIETLENTPEASETSLIENNSFTAAVDEETNADKETTASRSKRRSSRKKRTISIVTAEDKENTQEESTSQENGGAKVEEEVKSSSVEIINGSESKKKKPKLTVKIKLNKTTVLENNDGKRAEEKPESKSPAKKTAAKKTKTKSKSLGIFPTVEKLVEEMREQLDEVDSHPRTSIFEKLPSKRDYPDYFKVIEKPMAIDIILKNCKNGTYKTLEEVRQALQTMFENARFYNEEGSWVYVDADKLNEFTDEWFKEHSS
chain 2: MVATVKRTIRIKTQQHILPEVPPVENFPVRQWSIEIVLLDDEGKEIPATIFDKVIYHLHPTFANPNRTFTDPPFRIEEQGWGGFPLDISVFLLEKAGERKIPHDLNFLQESYEVEHVIQIPLNKPLLTEELAKSGSTEETTANTGTIGKRRTTTNTTAEPKAKRAKTGSASTVKGSVDLEKLAFGLTKLNEDDLVGVVQMVTDNKTPEMNVTNNVEEGEFIIDLYSLPEGLLKSLWDYVKKNTE
B2: Snf5_(771–800) [Saccharomyces cerevisiae] / Taf14ET (Taf14_(174–244)) [Saccharomyces cerevisiae] (parent complex)
chain 1: SPPCYIIDHIPGHSLLLSIKLPGKVNTKEE
chain 2: KGSVDLEKLAFGLTKLNEDDLVGVVQMVTDNKTPEMNVTNNVEEGEFIIDLYSLPEGLLKSLWDYVKKNTE
B3: Ino80_(368–390) [Saccharomyces cerevisiae] / Taf14ET (Taf14_(174–244)) [Saccharomyces cerevisiae] (parent complex)
chain 1: DSKLNIKITLKQYHVKRLKKLIN
chain 2: B2 chain 2
B4: Sth1EBM (Sth1_(1183–1240)) [Saccharomyces cerevisiae] / Taf14ET (Taf14_(174–244)) [Saccharomyces cerevisiae] (parent complex)
chain 1: EVKSSSVEIINGSESKKKKPKLTVKIKLNKTTVLENNDGKRAEEKPESKSPAKKTAAK
chain 2: B2 chain 2

Variants of: B1
Test: Co-immunoprecipitation; IP: HA; IB: anti-TAP; parent: 1

Row | ratio to parent | Variant
1 | 0.38 | chain 1 L1204A, chain 1 V1206A, chain 1 I1208A, chain 1 L1210A

Variants of: B2
Test: ITC; parent: 2.48e+03 nM

Row | Kd [µM] | Variant
2 | 41.5 | chain 1 L17A
3 | 189 | chain 1 I19A

Variants of: B3
Test: ITC; parent: 250 nM

Row | Kd [µM] | Variant
4 | 3.87 | chain 1 L10A
5 | 3.86 | chain 1 I6A

Variants of: B4
Test: ITC; parent: 50 nM

Row | Variant | Kd [nM]
6 | chain 1 K27E | 3940
7 | chain 1 I26A | 13400
8 | chain 1 K25E | 7690

The remaining lines, values ahead:

Row | Kd [nM] | Variant
9 | 2040 | chain 1 V24A
10 | 2060 | chain 1 L22A
11 | 1140 | chain 1 L28A

Variants of: B4
Test: ITC; parent: 50 nM
Remark: another data set of the same source

Row | Kd [nM] | Variant
12 | 3500 | chain 2 F47R
13 | 680 | chain 2 F47A
